Measured values: patent US20100081126, “PROCESS FOR DESIGNING INHIBITORS OF INFLUENZA VIRUS STRUCTURAL PROTEIN-1” (RUTGERS, THE STATE UNIVERSITY OF NEW JERSEY, published 2010)

Target: NS1A(1-73), NS1 protein N-terminal dsRNA-binding domain (Influenza A virus (A/Udorn/72)?, UniProt B4URE2 SEQ:1-73)
Sequence (B4URE2 1-73): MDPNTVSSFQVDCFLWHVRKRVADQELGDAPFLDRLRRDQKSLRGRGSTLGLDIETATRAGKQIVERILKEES

B1: 16-bp dsRNA (RR) (dsRNA)
RNA 1: CCAUCCUCUACAGGCG
RNA 2: CGCCUGUAGAGGAUGG
- Kd: 748 nM
